Results as given in PMC8349458.

Target: ACE2-Fc-TD
Test: SPR

| Substance | Half-life (ln2/kd) (s (from ln2/kd)) | Kd |
| --- | --- | --- |
| SARS-CoV-2 S1 domain, B.1.1.7 (alpha variant) (from UniProt P0DTC2 14-681) (domain or fragment) | 1190 | 1.73 nM |
| SARS-CoV-2 S1 domain, B.1.351 (beta variant) (from UniProt P0DTC2 14-681) (domain or fragment) | 454 |  |
| SARS-CoV-2 S1 domain, D614G (from UniProt P0DTC2 14-681) (domain or fragment) |  | 6.91 nM |
